{"source": "patent US20030022353", "proteins": {"B1": {"name": "ICEγ (protein)", "chain": "MADKVLKEKRKLFIRSMGEAPQAVQDNPAMPTSSGSEGNVKLCSLEEAQRIWKQKSAEIYPIMDKSSRTRLALIICNEEFDSIPRRTGAEVDITGMTMLLQNLGYSVDVKKNLTASDMTTELEAFAHRPEHKTSDSTFLVFMSHGIREGICGKKHSEQVPDILQLNAIFNMLNTKNCPSLKDKPKVIIIQACRGDSPGVVWFKDSVGVSGNLSLPTTEEFEDDAIKKAHIEKDFIAFCSSTPDNVSWRHPTMGSVFIGRLIEHMQEYACSCDVEEIFRKVRFSFEQPDGRAQMPTTERVTLTRCFYLFPGH"}, "B2": {"name": "Mch2β (protein)", "chain": "MSSASGLRRGHPAVSTVSHADADCFVCVFLSHGEGNHIYAYDAKIEIQTLTGLFKGDKCHSLVGKPKIFIIQACRGNQHDVPVIPLDVVDNQTEKLDTNITEVDAASVYTLPAGADFLMCYSVAEGYYSHRETVNGSWYIQDLCEMLGKYGSSLEFTELLTLVNRKVSQRRVDFCKDPSAIGKKQVPCFASMLTKKLHFFPKSN"}, "B3": {"name": "Mch2α (protein)", "chain": "MSSASGLRRGHPAGGEENMTETDAFYKREMFDPAEKYKMDHRRRGIALIFNHERFFWHLTLPERRRTCADRDNLTRRFSDLGFEVKCFNDLKAEELLLKIHEVSTVSHADADCFVCVFLSHGEGNHIYAYDAKIEIQTLTGLFKGDKCHSLVGKPKIFIIQACRGNQHDVPVIPLDVVDNQTEKLDTNITEVDAASVYTLPAGADFLMCYSVAEGYYSHRETVNGSWYIQDLCEMLGKYGSSLEFTELLTLVNRKVSQRRVDFCKDPSAIGKKQVPCFASMLTKKLHFFPKSN"}, "B4": {"name": "CPP32 (protein)", "chain": "MENTENSVDSKSIKNLEPKIIHGSESMDSGISLDNSYKMDYPEMGLCIIINNKNFHKSTGMTSRSGTDVDAANLRETFRNLKYEVRNKNDLTREEIVELMRDVSKEDHSKRSSFVCVLLSHGEEGIIFGTNGPVDLKKITNFFRGDRCRSLTGKPKLFIIQACRGTELDCGIETDSGVDDDMACHKIPVEADFLYAYSTAPGYYSWRNSKDGSWFIQSLCAMLKQYADKLEFMHILTRVNRKVATEFESFSFDATFHAKKQIPCIVSMLTKELYFYH"}}}
{"target": "human PARP, P09874", "sequence (P09874 whole entry, looked up)": "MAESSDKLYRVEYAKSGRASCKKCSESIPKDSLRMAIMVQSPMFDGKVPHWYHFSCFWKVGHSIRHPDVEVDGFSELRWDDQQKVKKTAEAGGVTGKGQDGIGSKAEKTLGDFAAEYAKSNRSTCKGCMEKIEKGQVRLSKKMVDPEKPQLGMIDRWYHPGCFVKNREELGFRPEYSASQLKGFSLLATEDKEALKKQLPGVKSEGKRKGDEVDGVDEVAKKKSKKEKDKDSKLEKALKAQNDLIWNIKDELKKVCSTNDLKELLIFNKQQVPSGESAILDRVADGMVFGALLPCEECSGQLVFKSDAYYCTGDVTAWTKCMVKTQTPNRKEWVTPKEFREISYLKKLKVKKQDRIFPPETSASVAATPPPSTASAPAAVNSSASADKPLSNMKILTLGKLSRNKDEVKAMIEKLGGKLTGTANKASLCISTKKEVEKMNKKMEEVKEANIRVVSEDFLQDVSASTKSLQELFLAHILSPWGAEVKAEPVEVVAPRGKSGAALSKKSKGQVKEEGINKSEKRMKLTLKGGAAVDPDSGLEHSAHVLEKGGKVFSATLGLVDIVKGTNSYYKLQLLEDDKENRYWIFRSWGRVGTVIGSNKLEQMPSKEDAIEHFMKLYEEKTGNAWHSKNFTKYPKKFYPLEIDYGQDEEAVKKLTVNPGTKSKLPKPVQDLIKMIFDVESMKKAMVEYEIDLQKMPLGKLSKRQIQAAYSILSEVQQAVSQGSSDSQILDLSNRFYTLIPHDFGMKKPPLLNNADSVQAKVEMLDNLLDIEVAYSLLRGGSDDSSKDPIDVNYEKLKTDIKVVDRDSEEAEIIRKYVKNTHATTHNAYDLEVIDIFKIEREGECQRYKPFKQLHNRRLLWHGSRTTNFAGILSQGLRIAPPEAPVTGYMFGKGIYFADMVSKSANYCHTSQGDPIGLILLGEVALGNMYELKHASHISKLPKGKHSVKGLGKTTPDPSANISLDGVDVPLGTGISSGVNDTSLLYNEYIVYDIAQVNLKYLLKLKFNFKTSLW"}
{"protein": "B1", "cleavage of PARP in vitro, Western blot": "PARP was not cleaved by Mch2β or ICEγ"}
{"protein": "B2", "cleavage of PARP in vitro, Western blot": "PARP was not cleaved by Mch2β or ICEγ"}
{"protein": "B3", "cleavage of PARP in vitro, Western blot": "Mch2α also cleaved PAR: to generate a major product of ˜83 kDa and a minor product of ˜57 kDa similar to that obtained with CPP32"}
{"protein": "B4", "cleavage of PARP in vitro, Western blot": "CPP32 cleaved PARP to generate a major band of ˜90 kDa and a minor band of 57 kDa"}
